Experimental data published in the DeepSol protein solubility set.

Test: soluble on expression in E. coli; label from the status in PepcDB or PDB records

Row | Sequence | soluble on expression in E. coli
1 | MAHHHHHHMPIHQYEGWSYERLRQQRNRAHFLLEDPYRYVTVLLISKPGRPEELKCIDSPCYHAAGPLGEGDIVEIEDLLCLRCPWHRYLVNIENGEEILLRVDPASAQGAGIVGRQAALPTYPMHFTDPSAEGVTVVHGEKVQRVHRAWLEEATGILSIEVAEEAVMRQHPVKSDKPAGNVKNGGICMQIFDIKLRGLDKL | not soluble
2 | MQHPTTKYVKLSFALIFLFNIASASIFSDDVTEATSSPDTTTTAVAIRAKRQCGGMGGCCGGMSGCGCGSMGMCGQTCCPSAPPPCSCGTPGCMQCVQQTVLVPVTTTTCCKCCQPVCTNACTNGGGCSCGCTRGGCSRKRRSLLAIASEEMSKRGDVMV | not soluble
3 | MTSYEEETDYRNVPRELLDNNIPMGRGMIKWAPFATLPEQFETIQQYIIDQNKITRPVLSDDQLAELNIRLHEALQYAQPVEVKFYNNGFVDSVRLTIYRIDAINYEIDGYVYNQQQRQKISIFDILDIVLLP | not soluble
4 | MGSDKIHHHHHHMTTLNAIFRPFIQPHRYKIAKGGRGSGKSWAIARLLVEIARRGTYRFLCAREFQASMADSVIQLIADTIQREGYLKEFEIQKAYIRHLAATDSLFMFYGIKNNVTKIKSLEGIDIAWVEEAEAVTKESWDILIPTIRKPGSEIWVSFNSKNILDDTYQRFVVNPPDDICLLTVHYTDNPHFPEVLRLEMEECKCKDYDLYLHIWEGQPVADSDLAIIKPLWIAAAVDAHMTLGFDAVGEKRLGFDVADEGKTATPCALCRAQSC | not soluble
5 | MGSDKIHHHHHHMRNIPDQEEYFALLIEFDFEDFNDLPQNAGTSQNYVQGQLNPLLESALHQFIDFSLVAPPSAFKFRKRELLELIYYSGYTAIAKLNMNKSLSERVQTLISYHLSTELTAEFIAAQLFMSSSTLRRKLKSEGNSIQDIRNRVRLGHGLHLIQTTNNSIGNIAFECGYQSQSRFTEQFKNLFGITPRELRKTKMLT | not soluble
6 | MAAAALREQLNALLSSMFASGLVDEQFQQLQMLQEDGGTPGFVAEVVTLFCDDADRIISELAALLDQPIVDFDKVDAYVHQLKGSSASVGAQKVKFTCMQFRQLCQDKNRDGCIMALAVVRNEFYDLRNKFQTMLQLEQQIQAQQ | soluble
7 | TDTLTRDNGAVVGDNQNSQTAGAQGPVLLQDVQLLQKLQRFDRERIPERVVHARGTGVKGEFTASADISDLSKATVFKSGEKTPVFVRFSSVVHGNHSPETLRDPHGFATKFYTADGNWDLVGNNFPTFFIRDAIKFPDMVHAFKPDPRTNLDNDSRRFDFFSHVPEATRTLTLLYSNEGTPAGYRFMDGNGVHAYKLVNAKGEVHYVKFHWKSLQGIKNLDPKEVAQVQSKDYSHLTNDLVGAIKKGDFPKWDLYVQVLKPEELAKFDFDPLDATKIWPDVPEKKIGQMVLNKNVDNFFQETEQVAMAPANLVPGIEPSEDRLLQGRVFSYADTQMYRLGANGLSLPVNQPKVAVNNGNQDGALNTGHTTSGVNYEPSRLEPRPADDKARYSELPLSGTTQQAKITREQNFKQAGDLYRSYSAKEKTDLVQKFGESLADTLTESKNIMLSYLYKEDPNYGTRVAEVAKGDLSKVKSLAASLKD | soluble
8 | MVTLYGIKNCDTIKKARRWLEANNIDYRFHDYRVDGLDSELLNGFINELGWEALLNTRGTTWRKLDETTRNKITDAASAAALMTEMPAIIKRPLLCAPGKPMLLGFSDSSYQQFFHEV | not soluble
9 | MFFKQFYDNHLSQASYLVGCQRTGEAIIIDPVRDLSKYIEVADSEGLTITQATETHIHADFASGIRDVAKRLNANIYVSGEGEDALGYKNMPSKTQFVKHGDIIQVGNVKLEVLHTPGHTPESISFLLTDLGGGSSVPMGLFSGDFIFVGDIGRPDLLEKSVQIKGSTEISAKQMYESVQNIKNLPDYVQIWPGHGAGSPCGKALGAIPISTIGYEKINNWAFNEIDETKFIESLTSNQPAPPHHFAQMKQVNQFGMNLYQSYDVYPSLDNKRVAFDLRSKEAFHGGHTKGTINIPYNKNFINQIGWYLDFEKDIDLIGDKSTVEKAKHTLQLIGFDKVAGYRLPKSGISTQSVHSADMTGKEEHVLDVRNDEEWNNGHLDQAVNIPHGKLLNENIPFNKEDKIYVHCQSGVRSSIAVGILESKGFENVVNIREGYQDFPESLKLEHHHHHH | soluble
10 | EKMTRDEIAYMLTNSEETLDADEIEMLQGVFSLDELMAREVMVPRTDAFMVDIQDDSQAIIQSILKQNYSRIPVYDGDKDNVIGIIHTKSLLKAGFVDGFDNIVWKRILQDPLFVPETIFVDDLLKELRNTQRQMAILLDEYGGMAGLVTLEDLLEEIVGEID | not soluble
11 | MSLDFRDYMVKQVAARSGYQLQLDGPLRWHVWPQLSILSGRMSLTAQGASQPLVRADNMRLDVALLPLLSHQLSVKQVMLKGAVIQLTPQTEAVRSEDAPVAPRDNTLPDLSDDRGWSFDISSLKVADSVLVFQHEDDEQVTIRNIRLQMEQDPQHRGSFEFSGRVNRDQRDLTISLNGTVDASDYPHDLTAAIEQINWQLQGADLPKQGIQGQGSFQAQWQESHKRLSFNQISLTANDSTLSGQAQVTLTEKPEWQLRLQFPQLNLDNLIPLNETANGENGAAQQGQSQSTLPRPVISSRIDEPAYQGLQGFTADILLQASNVRWRGMNFTDVATQMTNKSGLLEITQLQGKLNGGQVSLPGTLDATSINPRINFQPRLENVEIGTILKAFNYPISLTGKMSLAGDFSGADIDADAFRHNWQGQAHVEMTDTRMEGMNFQQMIQQAVERNGGDVKAAENFDNVTRLDRFTTDLTLKDGVVTLNDMQGQSPVLALTGEGMLNLADQTCDTQFDIRVVGGWNGESKLIDFLKETPVPLRVYGNWQQLNYSLQVDQLLRKHLQDEAKRRLNDWAERNKDSRNGKDVKKLLEKMEGHHHHHH | soluble
12 | MESELIFHEGGCHCGKIKWRVKAARSVIAWSCNCSDCSMRGNVHFIVPSSNFELLDDSKDFITTYTFGTHTAKHTFCKVCGITSFYIPRSNPDGVAVTVKCVKSGTLAHIEVKSYDGQNWEMSHKKTGIASFSKE | soluble
13 | MGSDKIHHHHHHMDYDYIIVGAGAAGLSLAYHLGQSALADQTILIIDPNHTRQNDRTWCFWEVGDGPFEAVVSRRWEHLWLYDKHWSARMAIAPYRYKLIQGIDFYQFVDHWLAQRPNITRLQGSVDRLVELPEGVAAVVGGRQYTARYAFNSVYRPVPTPPGYHTWLQHFKGWVIKTPQPVFDAEAATFMDFRIPQAGDVRFGYVLPFDTCTALVEYTIFSPQLVSQTEYEIGLQRYIAEQLGIDRYEITHVEYGVIPMSDVPLPLRPSPHVLNIGTAGGMSKPSTGYTFQRIQRQTRQIVASLTKEGHPFYRQPLFNRHALMDSILLNVLDAGRTPGHRFFANLFRHNPIQRVLRFLDEETTIAEDIALMSTVEMMPFAIAALAVFWGRMSSLGRREWEMG | not soluble
14 | MGSDKIHHHHHHMALIIAGERSGVGKTTTTLTLLAALKARQASVQSFKVGPDYIDPMFHRFVTGRDCRNLDPILTDEDYVQHCFQQHSQTADYTLVEGVMGLFDGLTGKTDTASTAHIARILNLPILLVLNCSSTARSIAAIAYGYQNFDSRLKIAGLVLNRVGSDRHLELLKDALEPLEIPILGVLRRQDEIQIPDRHLGLIPTSELPHLQSVIDRLAVLGQQCFDWNRLEPLLSNSDLNSTAFKSTTPSISLKSSVPIAIARDRAFNFYYADNFDLLRAAGAELIEWSPLQDRQLPAGVQGLYLGGGFPEVFAAELSDNLLARQAVQTAITQGIPCYAECGGLMYLCQHIIDFEQTQYPMVGAIAATAQMGSRLTLGYREATAQQASPLLQKGQVVWGHEFHRSSLREPIAQPLFQLQNFDGSLHYGEGYSQPNLHASYLHLHFGGKPWLIQNFLQACQQATALSR | not soluble
15 | MAHHHHHHMFLAATLDGVRSILSRIDPRQLHLYEIIREGSPCHLYLDVERESNHTALQHVIAVDDDSTSSSVEEADSLVQVEEDVGGTRRIVFQCCQSRYQELRRLAVRDPTDVCGLDCRIEPDNRNTCDVLLSALNSFVRDRHPSWVPPGLQAEGPGSVFADAWVLESVPLSGAATKFSQHYILKLHGRMFESTNSVKAFVRDFVAHVRERAAHDSQLHGALFFHKPPAWYPVFRELPLDYPRTTFPYLPRRCVIDEAVYSKNRMMRCVGSCKLGKQSVLLPYRHYVAGSCVEYFSNSANAASVSLDVFLSTLIAHRFAKDVAPVSLIKLTEEIEAPKNTRACALPASVSEGTAPATLHTVSLDVDIALLTSSLQRAYSQVANRACTVAQPHSLHGRFLSFSVRGTRYCQHIGREHKSNNVYLVVDTERMTFVQKCFDPDCASYRSPPRLLGGTP | not soluble
16 | MGSDKIHHHHHHMIKKIYFIMVVIGSILLSSCDSYLDIQPVGQVIPTTLTEYRALLTTAYGLKLIDKSVTEFRTDIAMVTDNSNSQNFYSEIEKWNDMSPKDGTREFGWAVYYSVIYYANAIIANKDNIKEGSQEDIDQLVGEAYLLRGYMHFILANLYGQPYTKEGAPETKSIPIKWDLDLEVVLPRNTVKEVYTAILSDIESARGLMHQKEWEAVYAYRFSTLSVDAMESRVRLYMGNWKEAYDAAERILVQKSTLEDLNDPEAKLPNNYTSAEMITAYEFFNDDVTSASILIPAFMEKYDANKDLRRNKYYSLSGDKYISKKSGKAEHNCTFRTGEIYLNAAEAAAQMNKLPEARTRLLQLMEKRYTPEGYAEKKKAVDAMNQADLIKEILEERALELAFEGHRWFDLRRTTRPRIEKVLNGQAYLLEQDDSRYTLRIPQSAIAANPGLLN | not soluble
17 | MGNMFGSSLASLFFLWATIQQIFPNHLKIAIKEFFLSTIQQISFAKRFSDKFINFFSPYVQINFSEYEDYRVNHAFDPIETYLGAKATDKAKHLRASQVRESKGLVLKRDETKVRDEYEGIRVWWEMETDSAGYKTLKLTFHRRSRDIVTNSYIKYVVEEGKSIDAKNKKMKLFTNNPSSHWGSSKTSFWRYIDFEHPATFETLAMDPKKKEQILNDLAAFNNGKDYYKKIGKAWKRGYLLYGPPGTGKSTMIAAMANLLNYSIYDLELTAIQNNSELRKILTATSNKSIIVIEDIDCSLDLTGKRKKKESNLMIWRKDGDQDNEENKSFVTLSGLLNFIDGIWSACGQERIIVFTTNHLAKLDPALIRRGRMDMHIELSYCTFEAFKTLAKNYLDLDSHPLFSKIESLMKETNIAPADVAENLMKKNRETDADGSLNDLIESLERKKKVQIAQVDEHKEYSNKIVEAFRKLF | soluble
18 | MDSHQQPYASQAQADTTLFPEQTRESLQALAVKLQPLIEGHRLDNLVDLLSLLSDIVDLLDPAMVDRLAQLFEQVTSVGWSVGNAVRVAKAELLREQPPSLKDLLRLLRDADSRRGLALVLGSLRSLGRQLAAEQEVAHGA | not soluble
19 | MAHHHHHHMSDNFFIPTFEHIYEQSIPPPLIKHSRKCKNYNKKRKNIIKYTSQDICVEQRNYDKENKEHKYVCINFHTFNKKCYHKNIRLLDHTHLDFTLGESLMYLLNAIIEVISKLKEGKEYKWNIKGKLINSKKENNIQIVYIENAFLSFKSIVLHAPLLKIKSIDI | not soluble
20 | MGSDKIHHHHHHMRLLDLYLTLRLALSTAVHTLAGRVKGRSYVPHPRTMLFIEPTSHCNLECSFCTYRLDRHPRLTLDMERFEDYVAQARAMGFADMVLTPINGDVFMDRTILDKLRLLDRLKDGPGIILYTNLIGASAEQLGEILALARLKMFQVSIYGHDFETFRRITGRGQVQFRRLLANLETIADLVAQGVVPQALSICVRTERHYRLEDEASGELHVLLRRLISLGIPVSVQSCLDDWGGLVAETDLDGLDMPLIRGRLIPKNGACIEPFYNVQILADGRVNACACRSVGEDLIIGDLRQDDLKTILSARNPAYTGLIERQQKGDFPQTCRGCSFYRSIYDRRIRNASPLGHMSLEQFHTFLSRE | not soluble
21 | MKSVLITFDQAYYERIMALLDRLNCRGFTYLEKVQGRGSKTGDPHFGSHAWPSMCSAILTVVDDNKVDPLLDTLHKMDLQTEQLGLRAFVWNIERTI | not soluble
22 | MAMPEIDALLGLSFCLYFFDNKQHKLPHIHVKYGSYELIIAIETGECLEGYLPNKQRKRAENHILEHREQLMVMWNKAVNGENPGKLGDLCLEHHHHHH | not soluble
